Assay results: patent US20100248359A1 (Chugai, published 2010)

Legend:
[1] = target: T1, soluble form of GPC3 core protein (human, UniProt P51654 25-563); assay: competitive ELISA on coated soluble GPC3 core protein; labelled competitor biotin-M11F1;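 also: Biotin-labelled antibody added as 10 µL at 10 µg/mL for 1 h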
T1 construct: not shown: His tag added to the C-terminus

[2] = target: T1, soluble form of GPC3 core protein; assay: competitive ELISA on coated soluble GPC3 core protein; labelled competitor biotin-M1E7;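 also: Biotin-labelled antibody added as 10 µL at 10 µg/mL for 1 h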
Experimental: (§1) The antibodies were biotinylated using a Biotin Labeling Kit (Roche). The soluble form of GPC3 core protein was diluted to 1 μg/mL with the coating buffer and added to a plate at 100 μL/well and stored at 4° C. overnight to coat the plate. On the next day, 200 μL of the substrate buffer was added for blocking. The plate was left at 4° C. overnight or longer and an anti-GPC3 antibody was added to the plate at 100 μL/well and reacted at room temperature for 1 hour. After that, without washing of the plate, 10 μL of 10 μg/mL biotin-labeled anti-GPC3 antibody was added and further reacted for 1 hour. The plate was washed with 300 μL/well of the rinse buffer for 3 times. AP-streptavidin conjugate (ZYMED) was diluted to 1000-fold with the dilution buffer and added at 100 μL/well and reacted at room temperature for 1 hour. The plate was washed with 300 μL/well of the rinse buffer for 5 times.

[3] = target: T1, soluble form of GPC3 core protein; assay: competitive ELISA on coated soluble GPC3 core protein; labelled competitor biotin-M6B1;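 also: Biotin-labelled antibody added as 10 µL at 10 µg/mL for 1 h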
Experimental: as §1

[4] = target: T1, soluble form of GPC3 core protein; assay: competitive ELISA on coated soluble GPC3 core protein; labelled competitor biotin-L9G11;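 also: Biotin-labelled antibody added as 10 µL at 10 µg/mL for 1 h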
Experimental: (§2) The obtained antibodies were classified according to the epitopes by a competitive ELISA. The antibodies were biotinylated using a Biotin Labeling Kit (Roche). The soluble form of GPC3 core protein was diluted to 1 μg/mL with the coating buffer and added to a plate at 100 μL/well and stored at 4° C. overnight to coat the plate. On the next day, 200 μL of the substrate buffer was added for blocking. The plate was left at 4° C. overnight or longer and an anti-GPC3 antibody was added to the plate at 100 μL/well and reacted at room temperature for 1 hour. After that, without washing of the plate, 10 μL of 10 μg/mL biotin-labeled anti-GPC3 antibody was added and further reacted for 1 hour. The plate was washed with 300 μL/well of the rinse buffer for 3 times. AP-streptavidin conjugate (ZYMED) was diluted to 1000-fold with the dilution buffer and added at 100 μL/well and reacted at room temperature for 1 hour. The plate was washed with 300 μL/well of the rinse buffer for 5 times.

[5] = target: T1, soluble form of GPC3 core protein; assay: competitive ELISA on coated soluble GPC3 core protein; labelled competitor biotin-M3C11;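 also: Biotin-labelled antibody added as 10 µL at 10 µg/mL for 1 h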
Experimental: as §2

[6] = target: T1, soluble form of GPC3 core protein; assay: competitive ELISA on coated soluble GPC3 core protein; labelled competitor biotin-M5B9;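 also: Biotin-labelled antibody added as 10 µL at 10 µg/mL for 1 h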
Experimental: as §1

[7] = target: T1, soluble form of GPC3 core protein; assay: competitive ELISA on coated soluble GPC3 core protein; labelled competitor biotin-M18D4;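 also: Biotin-labelled antibody added as 10 µL at 10 µg/mL for 1 h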
Experimental: as §2

[8] = target: T1, soluble form of GPC3 core protein; assay: ELISA on plate coated with soluble GPC3 core protein
Experimental: In order to conveniently evaluate the binding activity of the anti-GPC3 antibody thus obtained, concentration-dependent binding of the antibody was detected against an immunoplate containing the soluble form of GPC3 core protein immobilized thereon. A 3-fold dilution series (12 dilutions in total) of the purified antibody at a concentration of 10 μg/mL was added, and an anti-mouse IgG antibody was added as the secondary antibody. […] Since the degree of color development varies depending on the color development time, data measured precisely after 1 hour was analyzed. […] The correlation between the concentration of antibody and the degree of color development was plotted and an approximate curve was obtained by using an analyzing software, GraphPad Prism. Its EC50 value was determined as the index of the binding activity.

[9] = target: T1, soluble form of GPC3 core protein; assay: competitive ELISA on coated soluble GPC3 core protein; labelled competitor biotin-M10D2;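 also: Biotin-labelled antibody added as 10 µL at 10 µg/mL for 1 h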
Experimental: as §1

full-length human GPC3 [10] = target: T2, full-length human GPC3 (human, UniProt P51654 25-554); assay: flow cytometry, antibody at 5 µg/mL, HuH-7 cells
T2 construct: On CHO (DXB11) or SK-HEP-1 (SK-03) transfectants; also used here for the GPC3 on the hepatoma lines HepG2 and HuH-7; also called human glypican 3
Experimental: (§3) Cells were dissociated with 1 mM EDTA pH 8.0 (GIBCO)/PBS and suspended in FACS buffer (1% FBS/PBS) at 1×10⁶ cells/mL. The suspension was dispensed to a Multiscreen-HV Filter Plate (Millipore) at 100 μL/well and the supernatant was removed by centrifugation. An anti-GPC3 antibody diluted to an appropriate concentration was added and reacted on ice for 30 minutes. The cells were washed once with FACS buffer and an FITC-labeled anti-mouse IgG antibody was added and reacted on ice for 30 minutes. After the reaction, the cells were centrifuged at 500 rpm for 1 minute, and the supernatant was removed. The cells were suspended in 400 μL of FACS buffer and subjected to flow cytometry. EPICS ELITE ESP (Beckman Coulter) was used as a flow cytometer. A gate was set on the living cell population with the histogram of forward scatter and side scatter.

full-length human GPC3 [11] = target: T2, full-length human GPC3; assay: flow cytometry, antibody at 5 µg/mL, HepG2 cells
Experimental: as §3

full-length human GPC3 [12] = target: T2, full-length human GPC3; assay: flow cytometry, antibody at 5 µg/mL, CHO cells expressing human GPC3 (column CHO/human GPC3)
Experimental: as §3

full-length human GPC3 [13] = target: T2, full-length human GPC3; assay: BIACORE; the form of GPC3 used is not given

T2 sequence (P51654 25-554 limits assumed): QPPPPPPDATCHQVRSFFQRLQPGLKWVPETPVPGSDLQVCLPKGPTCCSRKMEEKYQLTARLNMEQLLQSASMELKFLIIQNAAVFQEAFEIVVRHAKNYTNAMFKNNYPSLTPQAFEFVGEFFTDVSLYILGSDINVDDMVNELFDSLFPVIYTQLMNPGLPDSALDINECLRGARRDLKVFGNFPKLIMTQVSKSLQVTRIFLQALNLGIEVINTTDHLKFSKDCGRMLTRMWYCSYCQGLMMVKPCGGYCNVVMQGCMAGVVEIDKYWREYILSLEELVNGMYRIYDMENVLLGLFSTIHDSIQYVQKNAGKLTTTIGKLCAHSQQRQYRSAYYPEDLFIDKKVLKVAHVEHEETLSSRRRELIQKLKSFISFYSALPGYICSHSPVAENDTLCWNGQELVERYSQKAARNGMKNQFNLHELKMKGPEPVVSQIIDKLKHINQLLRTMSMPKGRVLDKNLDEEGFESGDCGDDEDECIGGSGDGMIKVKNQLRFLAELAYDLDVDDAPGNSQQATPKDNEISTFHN
T1 sequence (P51654 25-563 S495A/S509A, form in doubt): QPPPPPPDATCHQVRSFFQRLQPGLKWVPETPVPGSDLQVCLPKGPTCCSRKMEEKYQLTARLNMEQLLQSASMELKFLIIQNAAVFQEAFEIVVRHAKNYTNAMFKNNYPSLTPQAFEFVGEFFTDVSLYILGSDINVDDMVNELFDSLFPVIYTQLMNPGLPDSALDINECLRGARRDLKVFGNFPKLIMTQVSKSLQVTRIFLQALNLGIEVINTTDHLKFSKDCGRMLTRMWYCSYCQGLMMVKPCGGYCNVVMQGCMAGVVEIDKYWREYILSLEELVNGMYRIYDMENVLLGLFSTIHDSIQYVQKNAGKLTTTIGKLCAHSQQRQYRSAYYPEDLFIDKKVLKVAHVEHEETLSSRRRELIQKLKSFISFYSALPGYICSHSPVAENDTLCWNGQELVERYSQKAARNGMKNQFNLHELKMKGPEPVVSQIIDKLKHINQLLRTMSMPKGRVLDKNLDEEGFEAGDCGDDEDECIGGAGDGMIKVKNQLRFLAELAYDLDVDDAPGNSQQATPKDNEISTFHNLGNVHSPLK

Row | Inhibition of the binding of indicated biotin-Mab to sGPC3 core (%) [1] [%] | Inhibition of the binding of indicated biotin-Mab to sGPC3 core (%) [2] [%] | Inhibition of the binding of indicated biotin-Mab to sGPC3 core (%) [3] [%] | Inhibition of the binding of indicated biotin-Mab to sGPC3 core (%) [4] [%] | Inhibition of the binding of indicated biotin-Mab to sGPC3 core (%) [5] [%] | Inhibition of the binding of indicated biotin-Mab to sGPC3 core (%) [6] [%] | Inhibition of the binding of indicated biotin-Mab to sGPC3 core (%) [7] [%] | EC50 [8] [nM] | Inhibition of the binding of indicated biotin-Mab to sGPC3 core (%) [9] [%] | FACS X-mode value of the histogram (full-length human GPC3 [10]) | FACS X-mode value of the histogram (full-length human GPC3 [11]) | FACS X-mode value of the histogram (full-length human GPC3 [12]) | Kd (full-length human GPC3 [13]) [nM] | koff (full-length human GPC3 [13]) [s⁻¹] | kon (full-length human GPC3 [13]) [M⁻¹ s⁻¹] | Binder
1 | 15.6 | 95.7 | 9.3 | 24.9 | 71.3 | -1.8 | 2.7 | 0.25 | 22.3 | – | – | – | – | – | – | M13B3 (antibody, V domains shown, Mouse monoclonal from hybridoma) VH: EVHLVESGGGLVKPGGSLKLSCAASGFTFSNYAMSWVRQTPEKRLEWVAAINNNGDDTYYLDTVKDRFTISRDNAKNTLYLQMSSLRSEDTALYYCVRQGGAYWGQGTLVTVSA VL: not shown
2 | 13.9 | -2.7 | 85.6 | 1.1 | -5.7 | 44.4 | 51.9 | 5.51 | 6.7 | 3 | 34 | 37 | – | – | – | M6B1 (antibody, V domains shown, Mouse monoclonal from hybridoma) VH: EVQLVESGGDLVKPGGSLKLSCAASGFTFSSYAMSWVRQTPEKRLEWVAAINSNGGTTYYPDTMKDRFTISRDNAKNTLYLQMSSLRSEDSALYYCTRHNGGYENYGWFAYWGQGTLVTVSA VL: DIQMTQSPSSLSASLGGKVTITCKASQDINKNIIWYQHKPGKGPRLLIWYTSTLQPGIPSRFSGSGSGRDYSFSISNLEPEDIATYYCLQYDNLPRTFGGGTKLEIK
3 | -0.3 | 0.5 | 38.6 | 6.7 | 0.2 | 89.4 | 89 | 0.85 | 19.1 | 2 | 20 | 22 | 6.2 | 0.000496 | 80000 | M18D4 (antibody, human IgG1, kappa, V domains shown, Mouse monoclonal from hybridoma) VH: EVQLQQSGTVLARPGASVKMSCKASGYTFTGYWMRWVKQRPGQGLEWIGAIYPGNSDTTYNQKFKGKAKLTAVTSVSTAYMELSSLTNEDSAVYYCSRSGDLTGGFAYWGQGTLVTVST VL: DIVMTQAAFSNPVTLGTSTSISCRSSKSLLHSNGITYLYWYLQKPGQSPQLLIYQMSNLASGVPDRFSSSGSGTDFTLRISRVEAEDVGVYYCAQNLELPYTFGSGTKLEIKR
4 | 5.3 | 2.7 | 23.2 | 10.3 | 0.1 | 77.3 | 77.3 | 1.13 | 13.4 | 2 | 23 | 25 | 23.5 | 0.00139 | 60000 | M5B9 (antibody, V domains shown, Mouse monoclonal from hybridoma) VH: EVQLQQSGTVLARPGASVKMSCKASGYTFTGYWMHWVKQRPGQGLEWIGAIYPGNSDTNYNQKFKGKAKLTAVTSASTAYMELSSLTNEDAAVYHCTRSGDLTGGLAYWGQGTLVTVSA VL: DIVMTQAAFSNPVTLGTSASISCRSSKSLLHSNGITYLYWFLQKPGQSPQLLIYQMSNLASGVPDRFSSSGSGTDFTLRISRVEAEDVGVYYCAQNLELPYTFGSGTKLEIK
